Test [1] has as its target βKlotho protein (AVIVA SYSTEMS BIOLOGY). The test is described as follows: ELISA on coated βKlotho, detection with anti-human IgG4 Fc-HRP, OD450.
The target is the same in test [2]. The test is described as follows: BLI (Octet RED 96), biotinylated βKlotho on streptavidin probe, fusion protein at 40 nM. For orientation: BLI is a label-free optical method that tracks binding on a fibre tip over time.
Test [3] shares this target. As to the kind of experiment: BLI (Octet RED 96), biotinylated βKlotho on streptavidin probe.

Results on 5 molecules are retold here after patent US20210196794A1 (SUNSHINE LAKE PHARMA, published 2021).

Sequence of βKlotho protein (AVIVA SYSTEMS BIOLOGY) (chain, as listed by the source): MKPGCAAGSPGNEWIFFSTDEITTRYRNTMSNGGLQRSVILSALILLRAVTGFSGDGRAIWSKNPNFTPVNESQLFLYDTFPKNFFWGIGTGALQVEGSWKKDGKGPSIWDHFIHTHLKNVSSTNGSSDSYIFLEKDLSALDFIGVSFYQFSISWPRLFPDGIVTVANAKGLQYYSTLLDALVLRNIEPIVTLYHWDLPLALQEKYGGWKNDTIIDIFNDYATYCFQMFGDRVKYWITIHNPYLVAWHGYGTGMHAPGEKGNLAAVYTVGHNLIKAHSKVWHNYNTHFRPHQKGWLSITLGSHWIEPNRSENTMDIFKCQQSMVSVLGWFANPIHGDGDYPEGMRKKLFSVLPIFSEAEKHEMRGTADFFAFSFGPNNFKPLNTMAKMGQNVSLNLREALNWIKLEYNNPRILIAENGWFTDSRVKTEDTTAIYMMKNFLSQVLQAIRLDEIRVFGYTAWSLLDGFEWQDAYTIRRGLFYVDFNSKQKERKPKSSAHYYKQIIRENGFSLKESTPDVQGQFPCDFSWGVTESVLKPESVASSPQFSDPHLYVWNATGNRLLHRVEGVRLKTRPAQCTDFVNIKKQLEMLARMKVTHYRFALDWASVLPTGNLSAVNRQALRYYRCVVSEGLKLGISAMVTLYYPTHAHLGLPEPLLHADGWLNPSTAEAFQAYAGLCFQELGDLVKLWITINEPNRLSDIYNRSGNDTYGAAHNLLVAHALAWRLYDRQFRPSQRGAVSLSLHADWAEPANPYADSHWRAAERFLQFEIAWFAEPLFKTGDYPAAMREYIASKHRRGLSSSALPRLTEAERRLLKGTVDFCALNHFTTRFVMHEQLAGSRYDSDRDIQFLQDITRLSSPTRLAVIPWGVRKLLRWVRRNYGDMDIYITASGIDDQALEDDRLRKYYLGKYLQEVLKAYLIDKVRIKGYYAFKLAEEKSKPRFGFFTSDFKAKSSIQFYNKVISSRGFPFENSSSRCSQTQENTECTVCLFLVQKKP

B1: fusion protein S5 (human IgG4 Fc - linker - FGF21 variant 98R, 167H, 171A, 175H) (Fc fusion)
chain: ESKYGPPCPPCPAPEAAGGPSVFLFPPKPKDTLMISRTPEVTCVVVDVSQEDPEVQFNWYVDGVEVHNAKTKPREEQFNSTYRVVSVLTVLHQDWLNGKEYKCKVSNKGLPSSIEKTISKAKGQPREPQVYTLPPSQEEMTKNQVSLTCLVKGFYPSDIAVEWESNGQPENNYKTTPPVLDSDGSFFLYSKLTVDKSRWQEGNVFSCSVMHEALHNHYTQKSLSLSLGGGGGSGGGGSGGGGSHPIPDSSPLLQFGGQVRQRYLYTDDAQQTEAHLEIREDGTVGGAADQSPESLLQLKALKPGVIQILGVKTSRFLCQRPDGALYGSLHFDPEACSFRERLLEDGYNVYQSEAHGLPLHLPGNKSPHRDPAPRGPARFLPLPGLPPALPEPPGILAPQPPDVGSSDPLHMVGASQGHSPSYAS
Broadly, the EC50 (read off the curve) is the concentration at which the effect is half-maximal. Read a high EC50 (read off the curve) as weaker potency. For B1, the “EC50 (read off the curve)” value in test [1] was roughly 0.2 µg/mL.

B2: fusion protein S1 (human IgG4 Fc - linker - FGF21 variant 98R, 167H, 171A) (Fc fusion)
chain: ESKYGPPCPPCPAPEAAGGPSVFLFPPKPKDTLMISRTPEVTCVVVDVSQEDPEVQFNWYVDGVEVHNAKTKPREEQFNSTYRVVSVLTVLHQDWLNGKEYKCKVSNKGLPSSIEKTISKAKGQPREPQVYTLPPSQEEMTKNQVSLTCLVKGFYPSDIAVEWESNGQPENNYKTTPPVLDSDGSFFLYSKLTVDKSRWQEGNVFSCSVMHEALHNHYTQKSLSLSLGGGGGSGGGGSGGGGSHPIPDSSPLLQFGGQVRQRYLYTDDAQQTEAHLEIREDGTVGGAADQSPESLLQLKALKPGVIQILGVKTSRFLCQRPDGALYGSLHFDPEACSFRERLLEDGYNVYQSEAHGLPLHLPGNKSPHRDPAPRGPARFLPLPGLPPALPEPPGILAPQPPDVGSSDPLHMVGASQGRSPSYAS
notes: Purified from HEK293F cells by Protein A
What is called Kd is the equilibrium constant for the complex coming apart. In test [2], B2 gave a Kd of 0.63 nM and a Response values of 0.17. Besides, the “EC50 (read off the curve)” value in test [1] is roughly 0.02 µg/mL.

B3: fusion protein S4 (human IgG4 Fc - linker - FGF21 variant 98R, 167H, 171A, 175P) (Fc fusion)
chain: ESKYGPPCPPCPAPEAAGGPSVFLFPPKPKDTLMISRTPEVTCVVVDVSQEDPEVQFNWYVDGVEVHNAKTKPREEQFNSTYRVVSVLTVLHQDWLNGKEYKCKVSNKGLPSSIEKTISKAKGQPREPQVYTLPPSQEEMTKNQVSLTCLVKGFYPSDIAVEWESNGQPENNYKTTPPVLDSDGSFFLYSKLTVDKSRWQEGNVFSCSVMHEALHNHYTQKSLSLSLGGGGGSGGGGSGGGGSHPIPDSSPLLQFGGQVRQRYLYTDDAQQTEAHLEIREDGTVGGAADQSPESLLQLKALKPGVIQILGVKTSRFLCQRPDGALYGSLHFDPEACSFRERLLEDGYNVYQSEAHGLPLHLPGNKSPHRDPAPRGPARFLPLPGLPPALPEPPGILAPQPPDVGSSDPLHMVGASQGPSPSYAS
With B3, the “EC50 (read off the curve)” value in test [1] is roughly 0.08 µg/mL.

B4: fusion protein S7 (human IgG4 Fc - linker - FGF21 variant 98R, 171A) (Fc fusion)
chain: ESKYGPPCPPCPAPEAAGGPSVFLFPPKPKDTLMISRTPEVTCVVVDVSQEDPEVQFNWYVDGVEVHNAKTKPREEQFNSTYRVVSVLTVLHQDWLNGKEYKCKVSNKGLPSSIEKTISKAKGQPREPQVYTLPPSQEEMTKNQVSLTCLVKGFYPSDIAVEWESNGQPENNYKTTPPVLDSDGSFFLYSKLTVDKSRWQEGNVFSCSVMHEALHNHYTQKSLSLSLGGGGGSGGGGSGGGGSHPIPDSSPLLQFGGQVRQRYLYTDDAQQTEAHLEIREDGTVGGAADQSPESLLQLKALKPGVIQILGVKTSRFLCQRPDGALYGSLHFDPEACSFRERLLEDGYNVYQSEAHGLPLHLPGNKSPHRDPAPRGPARFLPLPGLPPALPEPPGILAPQPPDVGSSDPLSMVGASQGRSPSYAS
On to B4, for which, in test [2], the Kd stood at 0.873 nM and the Response values stood at 0.143.

B5: fusion protein S2 (human IgG4 Fc - linker - FGF21 variant 98R, 167H, 171A, 175L) (Fc fusion)
chain: ESKYGPPCPPCPAPEAAGGPSVFLFPPKPKDTLMISRTPEVTCVVVDVSQEDPEVQFNWYVDGVEVHNAKTKPREEQFNSTYRVVSVLTVLHQDWLNGKEYKCKVSNKGLPSSIEKTISKAKGQPREPQVYTLPPSQEEMTKNQVSLTCLVKGFYPSDIAVEWESNGQPENNYKTTPPVLDSDGSFFLYSKLTVDKSRWQEGNVFSCSVMHEALHNHYTQKSLSLSLGGGGGSGGGGSGGGGSHPIPDSSPLLQFGGQVRQRYLYTDDAQQTEAHLEIREDGTVGGAADQSPESLLQLKALKPGVIQILGVKTSRFLCQRPDGALYGSLHFDPEACSFRERLLEDGYNVYQSEAHGLPLHLPGNKSPHRDPAPRGPARFLPLPGLPPALPEPPGILAPQPPDVGSSDPLHMVGASQGLSPSYAS
With B5, in test [2], the Kd was determined as 0.429 nM and the Response values is 0.19. The “binding ability relative to S7” value in test [3] was found to be 2 fold. Besides, in test [1], the concentration for a half-maximal effect (EC50 (read off the curve)) was roughly 0.02 µg/mL.
